Source: the supplement of paper PMC11246515
± gives the standard deviation of the averaged measurements.

Assay: total protein half-life in vivo (active degradation + dilution); higher = more stable protein
[1] = E. coli NCM3722 delta-clpP delta-lon delta-hslV, growth: N-lim chemostat, doubling time 6 h
[2] = E. coli NCM3722 delta-hslV, growth: N-lim chemostat, doubling time 6 h
[3] = E. coli NCM3722 delta-lon, growth: N-lim chemostat, doubling time 6 h
[4] = wild type E. coli NCM3722, growth: N-lim chemostat, doubling time 6 h
[5] = wild type E. coli NCM3722, growth: N-lim chemostat, doubling time 12 h
[6] = wild type E. coli NCM3722, growth: P-lim chemostat, doubling time 6 h
[7] = wild type E. coli NCM3722, growth: P-lim chemostat, doubling time 12 h
[8] = wild type E. coli NCM3722, growth: C-lim chemostat, doubling time 3 h
[9] = wild type E. coli NCM3722, growth: C-lim chemostat, doubling time 6 h
[10] = wild type E. coli NCM3722, growth: C-lim chemostat, doubling time 12 h
[11] = E. coli NCM3722 delta-clpP, growth: N-lim chemostat, doubling time 6 h
[12] = E. coli NCM3722 delta-smpB, growth: N-lim chemostat, doubling time 6 h

Sequence | total protein half-life in vivo [1] [h] | total protein half-life in vivo [2] [h] | total protein half-life in vivo [3] [h] | total protein half-life in vivo [4] [h] | total protein half-life in vivo [5] [h] | total protein half-life in vivo [6] [h] | total protein half-life in vivo [7] [h] | total protein half-life in vivo [8] [h] | total protein half-life in vivo [9] [h] | total protein half-life in vivo [10] [h] | total protein half-life in vivo [11] [h] | total protein half-life in vivo [12] [h]
MANYFIDRPVFAWVLAIIMMLAGGLAIMNLPVAQYPQIAPPTITVSATYPGADAQTVEDSVTQVIEQNMNGLDGLMYMSSTSDAAGNASITLTFETGTSPDIAQVQVQNKLQLAMPSLPEAVQQQGISVDKSSSNILMVAAFISDNGSLNQYDIADYVASNIKDPLSRTAGVGSVQLFGSEYAMRIWLDPQKLNKYNLVPSDVISQIKVQNNQISGGQLGGMPQAADQQLNASIIVQTRLQTPEEFGKILLKVQQDGSQVLLRDVARVELGAEDYSTVARYNGKPAAGIAIKLAAGANALDTSRAVKEELNRLSAYFPASLKTVYPYDTTPFIEISIQEVFKTLVEAIILVFLVMYLFLQNFRATIIPTIAVPVVILGTFAILSAVGFTINTLTMFGMVLAIGLLVDDAIVVVENVERVIAEDKLPPKEATHKSMGQIQRALVGIAVVLSAVFMPMAFMSGATGEIYRQFSITLISSMLLSVFVAMSLTPALCATILKAAPEGGHKPNALFARFNTLFEKSTQHYTDSTRSLLRCTGRYMVVYLLICAGMAVLFLRTPTSFLPEEDQGVFMTTAQLPSGATMVNTTKVLQQVTDYYLTKEKDNVQSVFTVGGFGFSGQGQNNGLAFISLKPWSERVGEENSVTAIIQRAMIALSSINKAVVFPFNLPAVAELGTASGFDMELLDNGNLGHEKLTQARNELLSLAAQSPNQVTGVRPNGLEDTPMFKVNVNAAKAEAMGVALSDINQTISTAFGSSYVNDFLNQGRVKKVYVQAGTPFRMLPDNINQWYVRNASGTMAPLSAYSSTEWTYGSPRLERYNGIPSMEILGEAAAGKSTGDAMKFMADLVAKLPAGVGYSWTGLSYQEALSSNQAPALYAISLVVVFLALAALYESWSIPFSVMLVVPLGVVGALLATDLRGLSNDVYFQVGLLTTIGLSAKNAILIVEFAVEMMQKEGKTPIEAIIEAARMRLRPILMTSLAFILGVLPLVISHGAGSGAQNAVGTGVMGGMFAATVLAIYFVPVFFVVVEHLFARFKKA | 6.822 ± 0.011 | 5.41 ± 0.53 | 5.03 ± 0.059 | 5.55 | 12.5 ± 3.7 | 5.7 ± 0.79 | 12.5 ± 1.6 | – | – | – | – | –
MKHLTEMVRQHKAGKTNGIYAVCSAHPLVLEAAIRYASANQTPLLIEATSNQVDQFGGYTGMTPADFRGFVCQLADSLNFPQDALILGGDHLGPNRWQNLPAAQAMANADDLIKSYVAAGFKKIHLDCSMSCQDDPIPLTDDIVAERAARLAKVAEETCLEHFGEADLEYVIGTEVPVPGGAHETLSELAVTTPDAARATLEAHRHAFEKQGLNAIWPRIIALVVQPGVEFDHTNVIDYQPAKASALSQMVENYETLIFEAHSTDYQTPQSLRQLVIDHFAILKVGPALTFALREALFSLAAIEEELVPAKACSGLRQVLEDVMLDRPEYWQSHYHGDGNARRLARGYSYSDRVRYYWPDSQIDDAFAHLVRNLADSPIPLPLISQYLPLQYVKVRSGELQPTPRELIINHIQDILAQYHTACEGQ [P0C8K0] | – | – | – | – | – | – | – | 2.63 ± 0.042 | 3.29 | 5 ± 1.3 | – | –
MQYWGKIIGVAVALLMGGGFWGVVLGLLIGHMFDKARSRKMAWFANQRERQALFFATTFEVMGHLTKSKGRVTEADIHIASQLMDRMNLHGASRTAAQNAFRVGKSDNYPLREKMRQFRSVCFGRFDLIRMFLEIQIQAAFADGSLHPNERAVLYVIAEELGISRAQFDQFLRMMQGGAQFGGGYQQQTGGGNWQQAQRGPTLEDACNVLGVKPTDDATTIKRAYRKLMSEHHPDKLVAKGLPPEMMEMAKQKAQEIQQAYELIKQQKGFK | – | – | 5.92 ± 0.42 | 6.24 ± 0.77 | 11.8 ± 1 | 6.61 ± 0.12 | 12.7 ± 1 | 2.98 ± 0.14 | 5.97 ± 0.2 | 11.2 ± 0.66 | 6.42 ± 1.5 | 5.91 ± 0.58
MTKLQLKYRELKIISVIAASENISHAATVLGIAQANVSKYLADFESKVGLKVFDRTTRQLMLTPFGTALLPYINDMLDRNEQLNNFIADYKHEKRGRVTIYAPTGIITYLSKHVIDKIKDIGDITLSLKTCNLERNAFYEGVEFPDDCDVLISYAPPKDESLVASFITQYAVTAYASQRYLEKHPISRPDELEHHSCILIDSMMIDDANIWRFNVAGSKEVRDYRVKGNYVCDNTQSALELARNHLGIVFAPDKSVQSDLQDGTLVPCFQQPYEWWLDLVAIFRKREYQPWRVQYVLDEMLREIRHQLAQSQQLRPEQAAESED | 5.588 ± 0.0059 | 4.7 ± 0.45 | 4.98 ± 0.36 | 4.15 ± 0.18 | 7.04 ± 0.43 | 6.03 ± 0.88 | 10.1 ± 0.15 | 2.74 ± 0.18 | – | 10.9 ± 2 | 5.07 ± 0.4 | 4.54 ± 0.47
MKFRLGGFEAIKSAYMAQVQYSMWVTRKDAWYFANYDPRMKREGLHYVVIERNEKYMASFDEMVPEFIEKMDEALAEIGFVFGEQWR | – | – | – | – | – | – | – | – | – | – | 2.75 | –
MGRKWANIVAKKTAKDGATSKIYAKFGVEIYAAAKQGEPDPELNTSLKFVIERAKQAQVPKHVIDKAIDKAKGGGDETFVQGRYEGFGPNGSMIIAETLTSNVNRTIANVRTIFNKKGGNIGAAGSVSYMFDNTGVIVFKGTDPDHIFEILLEAEVDVRDVTEEEGNIVIYTEPTDLHKGIAALKAAGITEFSTTELEMIAQSEVELSPEDLEIFEGLVDALEDDDDVQKVYHNVANL [P0A8A2] | 5.2 ± 0.11 | 4.11 ± 0.057 | 5.18 ± 1 | 4.55 ± 0.5 | 7.06 ± 0.55 | 5.02 ± 0.079 | 9.37 ± 0.61 | 2.95 ± 0.35 | 5.79 ± 1.9 | 9.45 ± 0.47 | 4.981 ± 0.0067 | 4.17 ± 0.56
MVDSKKRPGKDLDRIDRNILNELQKDGRISNVELSKRVGLSPTPCLERVRRLERQGFIQGYTALLNPHYLDASLLVFVEITLNRGAPDVFEQFNTAVQKLEEIQECHLVSGDFDYLLKTRVPDMSAYRKLLGETLLRLPGVNDTRTYVVMEEVKQSNRLVIKTR [P0ACJ0] | 6.5 ± 0.13 | 6.65 ± 0.079 | 7.54 ± 0.57 | 5.82 ± 0.65 | 12 ± 0.67 | 5.73 ± 0.45 | 14 ± 0.69 | 3.27 ± 0.28 | 6.23 ± 0.33 | 10.8 ± 0.19 | 6.63 ± 0.76 | 6.08 ± 0.29
MNTIASVTLPHHVHAPRYDRQQLQSRIVHFGFGAFHRAHQALLTDRVLNAQGGDWGICEISLFSGDQLMSQLRAQNHLYTVLEKGADGNQVIIVGAVHECLNAKLDSLAAIIEKFCEPQVAIVSLTITEKGYCIDPATGALDTSNPRIIHDLQTPEEPHSAPGILVEALKRRRERGLTPFTVLSCDNIPDNGHVVKNAVLGMAEKRSPELAGWIKEHVSFPGTMVDRIVPAATDESLVEISQHLGVNDPCAISCEPFIQWVVEDNFVAGRPAWEVAGVQMVNDVLPWEEMKLRMLNGSHSFLAYLGYLSGFAHISDCMQDRAFRHAARTLMLDEQAPTLQIKDVDLTQYADKLIARFANPALKHKTWQIAMDGSQKLPQRMLAGIRIHQGRETDWSLLALGVAGWMRYVSGVDDAGNAIDVRDPLSDKIRELVAGSSSEQRVTALLSLREVFGDDLPDNPHFVQAIEQAWQQIVQFGAHQALLNTLKI | 5.54 ± 0.38 | – | – | – | – | – | – | 0.36 ± 0.057 | 0.863 | 0.917 | – | –
